{"source": "patent US5622933A", "about": "“Multiple branch peptide constructions for use against HIV” (priority 1993, dated 1997)", "key": {"[1]": {"system": "HIV-2 (ROD)", "assay": "Fusion between chronically infected CEM cells and MT-2 cells", "type": "cell-based", "details": "separate tests"}, "[2]": {"system": "CEM or C8166 cells", "details": "concentrations of 10^-7 to 10^-4 M; cultured continuously (15 days)", "description": "An MTT assay, a colorimetric cell viability assay using 3-[4,5-Dimethylthiazol-2-yl] 2,5-diphenyltetrazolium bromide, was used to assess the effect of MBPCs on cell viability. CEM or C8166 cells (5×10^4) were cultured continuously (15 days) in the presence of various concentrations of MBPCs in the wells of 96-well microtiter plates in 200 μl final volume of RPMI 1640 medium supplemented with 5% fetal calf serum, 1% glutamine, 1% streptomycin-penicillin (available from Gibco of Irvine, Scotland) in a humidified atmosphere with 5% CO2. Every 3 to 4 days, an MTT assay was performed on 100 μl of cells suspension and MBPC were added to cell culture and the volume completed to 200 μl."}, "[3]": {"system": "HIV-1 (LAI)", "assay": "Fusion between chronically infected CEM cells and MT-2 cells", "type": "cell-based", "details": "separate tests"}, "[4]": {"system": "C57/BL6 black mice", "assay": "Immunogenicity in mice (serum ELISA for anti-MBPC3 antibody)", "type": "in vivo, mouse", "experimental": "The injection route was intraperitoneal. The blood samples were collected by sub-orbital eye punction. The blood samples were left for 1 hour at 37° C., then overnight at 4° C., and the supernatants (serum samples) thus obtained were separated from the pellets. Sera were tested by ELISA, looking for specific anti-MBPC3 antibody.\n[…] After saturation with 400 μL of casein (5 g/100 ml), different serum dilutions were added for 2 hours at 37° C. The controls were sera from non-immunized rabbits and mice. After rinsing (5×), 50 μl of 1:5000 of peroxidase-labeled swine anti-rabbit IgG or anti-mouse IgG (Dakopatts, Copenhagen, Denmark) were added for 1 hour at 37° C. After further rinsing (5×), 100 μl of ortho-phenylenediamine were added for 30 min in the dark at room temperature. The reaction was stopped by adding 50 μl of 4N sulfuric acid, and optical density (OD) ratios were determined at 492/620 nm."}, "[5]": {"system": "HIV-1 (NDK)", "assay": "Fusion between chronically infected CEM cells and MT-2 cells", "type": "cell-based", "details": "separate tests"}, "[6]": {"system": "Peripheral blood lymphocytes (PBL)", "assay": "PBL antigen and mitogen induced proliferation ([3H]thymidine incorporation)", "type": "cell-based, human", "details": "MBPCs 5×10^-6 M", "experimental": "Peripheral blood lymphocytes (PBL) from 3 healthy HIV sero-negative donors were isolated from heparinized blood by the Ficoll-Hypaque technique. The culture medium was RPMI 1640 supplemented with 1% glutamine, 1% antibiotics and 10% heat inactivated fetal calf serum. Cells (10^5) were incubated in the presence of MBPCs (5×10^-6 M) with or without antigen (candidine, PPD) or mitogen (PHA). Antigen or mitogen treated cells were pulsed for eight hours with […] of [3H] thymidine. Then cells were harvested and [3H] thymidine incorporation in DNA was counted. […]"}}, "note": "Where “and” joins values, the source holds several entries; their conditions need not be identical. Identical values can stand only once.", "data": [{"substance": "(GPGRAF)8 -(K)4 -(K)2 -K-βA-OH [MBPC.3]", "values": [{"measurement": "block of fusion", "setting": "[1]", "result": "able to block the fusion"}, {"measurement": "toxicity to cells (MTT assay)", "setting": "[2]", "result": "not toxic"}, {"measurement": "block of fusion", "setting": "[3]", "result": "able to block the fusion"}, {"measurement": "titers of anti-GPGRAF antibodies", "setting": "[4]; mice injected", "result": "did not produce significant titers"}, {"measurement": "optical density (OD) ratio 492/620 nm (×10^3)", "setting": "[4]; plate 1, mouse serum 10^-2, coat 0.5 μg MBPC.3/ml", "result": "382 and 381"}, {"measurement": "optical density (OD) ratio 492/620 nm (×10^3)", "setting": "[4]; plate 1, mouse serum 10^-2, coat 1 μg MBPC.3/ml", "result": "444 and 419"}, {"measurement": "optical density (OD) ratio 492/620 nm (×10^3)", "setting": "[4]; plate 1, mouse serum 10^-2, coat 5 μg MBPC.3/ml", "result": "1045 and 933"}, {"measurement": "optical density (OD) ratio 492/620 nm (×10^3)", "setting": "[4]; plate 1, mouse serum 10^-2, coat 10 μg MBPC.3/ml", "result": "1162 and 1199"}, {"measurement": "optical density (OD) ratio 492/620 nm (×10^3)", "setting": "[4]; plate 1, mouse serum 10^-3, coat 0.5 μg MBPC.3/ml", "result": "128 and 135"}, {"measurement": "optical density (OD) ratio 492/620 nm (×10^3)", "setting": "[4]; plate 1, mouse serum 10^-3, coat 1 μg MBPC.3/ml", "result": "126 and 111"}, {"measurement": "optical density (OD) ratio 492/620 nm (×10^3)", "setting": "[4]; plate 1, mouse serum 10^-3, coat 5 μg MBPC.3/ml", "result": "285 and 236"}, {"measurement": "optical density (OD) ratio 492/620 nm (×10^3)", "setting": "[4]; plate 1, mouse serum 10^-3, coat 10 μg MBPC.3/ml", "result": "339 and 291"}, {"measurement": "optical density (OD) ratio 492/620 nm (×10^3)", "setting": "[4]; plate 1, mouse serum 10^-4, coat 0.5 μg MBPC.3/ml", "result": "56 and 38"}, {"measurement": "optical density (OD) ratio 492/620 nm (×10^3)", "setting": "[4]; plate 1, mouse serum 10^-4, coat 1 μg MBPC.3/ml", "result": "50 and 51"}, {"measurement": "optical density (OD) ratio 492/620 nm (×10^3)", "setting": "[4]; plate 1, mouse serum 10^-4, coat 5 μg MBPC.3/ml", "result": "121 and 132"}, {"measurement": "optical density (OD) ratio 492/620 nm (×10^3)", "setting": "[4]; plate 1, mouse serum 10^-4, coat 10 μg MBPC.3/ml", "result": "172 and 138"}, {"measurement": "optical density (OD) ratio 492/620 nm (×10^3)", "setting": "[4]; plate 2, mouse serum 10^-2, coat 1 μg MBPC.3/ml", "result": "381 and 429"}, {"measurement": "optical density (OD) ratio 492/620 nm (×10^3)", "setting": "[4]; plate 2, mouse serum 10^-2, coat 5 μg MBPC.3/ml", "result": "1514 and 1344"}, {"measurement": "optical density (OD) ratio 492/620 nm (×10^3)", "setting": "[4]; plate 2, mouse serum 10^-2, coat 10 μg MBPC.3/ml", "result": "1540 and 1457"}, {"measurement": "optical density (OD) ratio 492/620 nm (×10^3)", "setting": "[4]; plate 2, mouse serum 10^-3, coat 0.5 μg MBPC.3/ml", "result": "47 and 82"}, {"measurement": "optical density (OD) ratio 492/620 nm (×10^3)", "setting": "[4]; plate 2, mouse serum 10^-3, coat 1 μg MBPC.3/ml", "result": "54 and 65"}, {"measurement": "optical density (OD) ratio 492/620 nm (×10^3)", "setting": "[4]; plate 2, mouse serum 10^-3, coat 5 μg MBPC.3/ml", "result": "263 and 273"}, {"measurement": "optical density (OD) ratio 492/620 nm (×10^3)", "setting": "[4]; plate 2, mouse serum 10^-3, coat 10 μg MBPC.3/ml", "result": "334 and 291"}, {"measurement": "optical density (OD) ratio 492/620 nm (×10^3)", "setting": "[4]; plate 2, mouse serum 10^-4, coat 1 μg MBPC.3/ml", "result": "15 and 17"}, {"measurement": "optical density (OD) ratio 492/620 nm (×10^3)", "setting": "[4]; plate 2, mouse serum 10^-4, coat 5 μg MBPC.3/ml", "result": "88 and 97"}, {"measurement": "optical density (OD) ratio 492/620 nm (×10^3)", "setting": "[4]; plate 2, mouse serum 10^-4, coat 10 μg MBPC.3/ml", "result": "132 and 188"}, {"measurement": "optical density (OD) ratio 492/620 nm (×10^3)", "setting": "[4]; plate 3, mouse serum 10^-2, coat 0.5 μg MBPC.3/ml", "result": "204 and 198"}, {"measurement": "optical density (OD) ratio 492/620 nm (×10^3)", "setting": "[4]; plate 3, mouse serum 10^-2, coat 1 μg MBPC.3/ml", "result": "241 and 200"}, {"measurement": "optical density (OD) ratio 492/620 nm (×10^3)", "setting": "[4]; plate 3, mouse serum 10^-2, coat 5 μg MBPC.3/ml", "result": "636 and 630"}, {"measurement": "optical density (OD) ratio 492/620 nm (×10^3)", "setting": "[4]; plate 3, mouse serum 10^-2, coat 10 μg MBPC.3/ml", "result": "639 and 664"}, {"measurement": "optical density (OD) ratio 492/620 nm (×10^3)", "setting": "[4]; plate 3, mouse serum 10^-3, coat 0.5 μg MBPC.3/ml", "result": "48 and 49"}, {"measurement": "optical density (OD) ratio 492/620 nm (×10^3)", "setting": "[4]; plate 3, mouse serum 10^-3, coat 1 μg MBPC.3/ml", "result": "50 and 53"}, {"measurement": "optical density (OD) ratio 492/620 nm (×10^3)", "setting": "[4]; plate 3, mouse serum 10^-3, coat 5 μg MBPC.3/ml", "result": "159 and 163"}, {"measurement": "optical density (OD) ratio 492/620 nm (×10^3)", "setting": "[4]; plate 3, mouse serum 10^-3, coat 10 μg MBPC.3/ml", "result": "172 and 168"}, {"measurement": "optical density (OD) ratio 492/620 nm (×10^3)", "setting": "[4]; plate 3, mouse serum 10^-4, coat 0.5 μg MBPC.3/ml", "result": "22 and 21"}, {"measurement": "optical density (OD) ratio 492/620 nm (×10^3)", "setting": "[4]; plate 3, mouse serum 10^-4, coat 1 μg MBPC.3/ml", "result": 22}, {"measurement": "optical density (OD) ratio 492/620 nm (×10^3)", "setting": "[4]; plate 3, mouse serum 10^-4, coat 5 μg MBPC.3/ml", "result": "83 and 84"}, {"measurement": "optical density (OD) ratio 492/620 nm (×10^3)", "setting": "[4]; plate 3, mouse serum 10^-4, coat 10 μg MBPC.3/ml", "result": "85 and 84"}, {"measurement": "optical density (OD) ratio 492/620 nm (×10^3)", "setting": "[4]; plate 4, mouse serum 10^-2, coat 0.5 μg MBPC.3/ml", "result": "495 and 468"}, {"measurement": "optical density (OD) ratio 492/620 nm (×10^3)", "setting": "[4]; plate 4, mouse serum 10^-2, coat 1 μg MBPC.3/ml", "result": "553 and 439"}, {"measurement": "optical density (OD) ratio 492/620 nm (×10^3)", "setting": "[4]; plate 4, mouse serum 10^-2, coat 5 μg MBPC.3/ml", "result": "1233 and 1336"}, {"measurement": "optical density (OD) ratio 492/620 nm (×10^3)", "setting": "[4]; plate 4, mouse serum 10^-2, coat 10 μg MBPC.3/ml", "result": "1454 and 1340"}, {"measurement": "optical density (OD) ratio 492/620 nm (×10^3)", "setting": "[4]; plate 4, mouse serum 10^-3, coat 0.5 μg MBPC.3/ml", "result": "90 and 95"}, {"measurement": "optical density (OD) ratio 492/620 nm (×10^3)", "setting": "[4]; plate 4, mouse serum 10^-3, coat 1 μg MBPC.3/ml", "result": "83 and 88"}, {"measurement": "optical density (OD) ratio 492/620 nm (×10^3)", "setting": "[4]; plate 4, mouse serum 10^-3, coat 5 μg MBPC.3/ml", "result": "299 and 297"}, {"measurement": "optical density (OD) ratio 492/620 nm (×10^3)", "setting": "[4]; plate 4, mouse serum 10^-3, coat 10 μg MBPC.3/ml", "result": "334 and 318"}, {"measurement": "optical density (OD) ratio 492/620 nm (×10^3)", "setting": "[4]; plate 4, mouse serum 10^-4, coat 0.5 μg MBPC.3/ml", "result": 28}, {"measurement": "optical density (OD) ratio 492/620 nm (×10^3)", "setting": "[4]; plate 4, mouse serum 10^-4, coat 1 μg MBPC.3/ml", "result": "27 and 21"}, {"measurement": "optical density (OD) ratio 492/620 nm (×10^3)", "setting": "[4]; plate 4, mouse serum 10^-4, coat 5 μg MBPC.3/ml", "result": "124 and 103"}, {"measurement": "optical density (OD) ratio 492/620 nm (×10^3)", "setting": "[4]; plate 4, mouse serum 10^-4, coat 10 μg MBPC.3/ml", "result": "133 and 113"}, {"measurement": "block of fusion", "setting": "[5]", "result": "able to block the fusion"}, {"measurement": "[3H] Thymidine Incorporation", "setting": "[6]; Donor 1, Cand1", "result": 87000, "unit": "cpm"}, {"measurement": "[3H] Thymidine Incorporation", "setting": "[6]; Donor 1, Cand2", "result": 100000, "unit": "cpm"}, {"measurement": "[3H] Thymidine Incorporation", "setting": "[6]; Donor 1, PPD1", "result": 1300, "unit": "cpm"}, {"measurement": "[3H] Thymidine Incorporation", "setting": "[6]; Donor 1, PPD2", "result": 3100, "unit": "cpm"}, {"measurement": "[3H] Thymidine Incorporation", "setting": "[6]; Donor 2, Cand1", "result": 17000, "unit": "cpm"}, {"measurement": "[3H] Thymidine Incorporation", "setting": "[6]; Donor 2, Cand2", "result": 11000, "unit": "cpm"}, {"measurement": "[3H] Thymidine Incorporation", "setting": "[6]; Donor 2, PHA1", "result": 87000, "unit": "cpm"}, {"measurement": "[3H] Thymidine Incorporation", "setting": "[6]; Donor 2, PHA2", "result": 95000, "unit": "cpm"}, {"measurement": "[3H] Thymidine Incorporation", "setting": "[6]; Donor 2, PPD1", "result": 24000, "unit": "cpm"}, {"measurement": "[3H] Thymidine Incorporation", "setting": "[6]; Donor 2, PPD2", "result": 27000, "unit": "cpm"}, {"measurement": "[3H] Thymidine Incorporation", "setting": "[6]; Donor 3, Cand1", "result": 3200, "unit": "cpm"}, {"measurement": "[3H] Thymidine Incorporation", "setting": "[6]; Donor 3, Cand2", "result": 1200, "unit": "cpm"}, {"measurement": "[3H] Thymidine Incorporation", "setting": "[6]; Donor 3, PHA1", "result": 162000, "unit": "cpm"}, {"measurement": "[3H] Thymidine Incorporation", "setting": "[6]; Donor 3, PHA2", "result": 154000, "unit": "cpm"}, {"measurement": "[3H] Thymidine Incorporation", "setting": "[6]; Donor 3, PPD1", "result": 3900, "unit": "cpm"}, {"measurement": "[3H] Thymidine Incorporation", "setting": "[6]; Donor 3, PPD2", "result": 3100, "unit": "cpm"}]}]}
